Assay results taken from PMC9772228, “Structure of a RecT/Redβ family recombinase in complex with a duplex intermediate of DNA annealing”.
Residue numbers refer to the chain shown, from its start.

Legend:
Experiment in all cases: EMSA; little to no detectable; EMSA: PBS pH 7.4 (or KH2PO4/10 mM MgCl2 pH 6.0), 3.6 or 5 uM protein, 25 uM nt DNA, 37 C 15 min per strand, 0.8% agarose 1x TBE; cryo-EM: 20 mM KH2PO4 (Results: 10 mM), 10 mM MgCl2 pH 6.0, 37 C; native MS: 100 mM ammonium acetate pH 7, 37 C
Conditions in all cases: protein: recombinant, tags: N-terminal 6His vector tag (20 aa) retained, chain copies: 10
LiRecT K111A/K215A = target: T1, LiRecT K111A/K215A (Listeria innocua CLIP 11262, UniProt Q92FL9 1-271, K111A;K215A)
T1 sequence: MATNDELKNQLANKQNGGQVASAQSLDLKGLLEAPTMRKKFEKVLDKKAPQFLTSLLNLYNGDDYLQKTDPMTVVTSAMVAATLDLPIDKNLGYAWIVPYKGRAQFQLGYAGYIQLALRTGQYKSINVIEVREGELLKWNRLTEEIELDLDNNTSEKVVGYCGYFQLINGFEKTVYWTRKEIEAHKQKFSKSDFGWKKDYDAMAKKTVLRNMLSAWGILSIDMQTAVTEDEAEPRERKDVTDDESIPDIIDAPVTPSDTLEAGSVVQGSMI

LiRecT R210A/K215A = target: T2, LiRecT R210A/K215A (Listeria innocua CLIP 11262, UniProt Q92FL9 1-271, R210A;K215A)
T2 sequence: T1 sequence with A111K, R210A

LiRecT K206E = target: T3, LiRecT K206E (Listeria innocua CLIP 11262, UniProt Q92FL9 1-271, K206E)
T3 sequence: T1 sequence with A111K, K206E, A215K

LiRecT K206A/R210A = target: T4, LiRecT K206A/R210A (Listeria innocua CLIP 11262, UniProt Q92FL9 1-271, K206A;R210A)
T4 sequence: T1 sequence with A111K, K206A, R210A, A215K

LiRecT K206A/K215A = target: T5, LiRecT K206A/K215A (Listeria innocua CLIP 11262, UniProt Q92FL9 1-271, K206A;K215A)
T5 sequence: T1 sequence with A111K, K206A

[1] = label: 5'-Cy3;5'-Cy5, 49 bp, 1 nt 5' overhang at each end

Measured: binding result

B1: Cy3-50mer (ssDNA)
DNA: GCGGATGGCTTAGAGCAGAATCGCCCTGCATAGCTCGATTTTTGCGGATG
no binding: LiRecT K111A/K215A; label: 5'-Cy3, single strand | LiRecT R210A/K215A; label: 5'-Cy3, single strand | LiRecT K206E; label: 5'-Cy3, single strand | LiRecT K206A/R210A; label: 5'-Cy3, single strand | LiRecT K206A/K215A; label: 5'-Cy3, single strand

B2: Cy5-50mer (ssDNA)
DNA: CCATCCGCAAAAATCGAGCTATGCAGGGCGATTCTGCTCTAAGCCATCCG
no binding: LiRecT K111A/K215A; label: 5'-Cy5, single strand | LiRecT R210A/K215A; label: 5'-Cy5, single strand | LiRecT K206E; label: 5'-Cy5, single strand | LiRecT K206A/R210A; label: 5'-Cy5, single strand | LiRecT K206A/K215A; label: 5'-Cy5, single strand

B3: 50-mer duplex intermediate (sequential addition) (dsDNA)
DNA 1: B1 DNA
DNA 2: B2 DNA
no binding: LiRecT K111A/K215A; [1] | LiRecT R210A/K215A; [1] | LiRecT K206E; [1] | LiRecT K206A/R210A; [1] | LiRecT K206A/K215A; [1]
